Changes are numbered by the printed parent chain.
Experiments:
[1] = target: T1, human-derived transmembrane HB-EGF protein (wild type HB-EGF) (human, UniProt Q99075 20-208); assay: flow cytometry with 293T culture supernatant as primary antibody (the FIG. 11 legend says ELISA)
T1 construct: also called human HB-EGF protein; cell surface HB-EGF
Method: The reactivity of the 35-1 chimeric antibody or the 35-1 humanized antibody with HB-EGF was evaluated by the flow cytometry.
The antibody concentration in the culture supernatant was calculated according to a sandwich ELISA method. […] After the plate was washed with 0.05% Tween 20-PBS, an HRP-labeled goat anti-mouse IgG (manufactured by MBL Co., Ltd., code number: 330) having been diluted to 1/10000 was added as a detection antibody in an amount of 50 μL/well and left to stand at room temperature for 1 hour. After the plate was washed with 0.05% Tween 20-PBS, a color developing solution was added thereto in an amount of 50 μL/well and left to stand at room temperature for 20 minutes to develop a color. The color development was terminated by adding 1 M phosphoric acid in an amount of 50 μL/well. Then, the absorbance at 450 nm was measured with a plate reader. Regarding the antibody concentration in the culture supernatant, a standard curve was created based on measured values obtained by serially diluting the antibody solution of a known concentration, and the antibody concentration was calculated from the measured values of the culture supernatant.

[2] = target: mutant HB-EGF I117A (human, UniProt Q99075 20-208); assay: flow cytometry on 293T cells transiently expressing the mutant, antibody 5 µg/mL
Sequence of mutant HB-EGF I117A (Q99075 20-208 I117A): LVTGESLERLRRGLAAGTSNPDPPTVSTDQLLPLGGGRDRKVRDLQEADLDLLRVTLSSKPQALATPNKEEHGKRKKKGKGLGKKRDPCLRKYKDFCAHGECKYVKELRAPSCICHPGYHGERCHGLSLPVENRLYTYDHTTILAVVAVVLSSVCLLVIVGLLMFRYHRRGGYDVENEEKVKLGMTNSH
Method: (§1) First, prepared were cells expressing amino acid point mutant HB-EGF to be subjected to the flow cytometry. To be more specific, genes encoding mutant HB-EGF shown in Table 1 were prepared by site-directed mutagenesis using the HB-EGF-pQCxmhIPG as a template. The obtained mutant HB-EGF genes were each inserted into an animal cell expression vector pQCxmhIPG to prepare a vector encoding each mutant HB-EGF. […] Thus, cells expressing amino acid point mutant HB-EGF were prepared.
(§2) Next, each of the anti-HB-EGF antibodies (5 μg/mL) and a secondary antibody (manufactured by Beckman Coulter, Inc., catalog number: IM0855, this antibody was diluted to 1/200 for use)) were allowed to react with the cells expressing the wild type HB-EGF or each mutant HB-EGF, and the mean fluorescence intensity was analyzed by the flow cytometry. […] Then, based on the obtained mean fluorescence intensity (antibody reactivity), the binding strength (relative value) of each anti-HB-EGF antibody to each mutant HB-EGF was calculated according to the following formula (Formula *).

[3] = target: mutant HB-EGF F115A (human, UniProt Q99075 20-208); assay: as above
Sequence of mutant HB-EGF F115A (Q99075 20-208 F115A): as the sequence (Q99075 20-208 I117A) above, with F96A, A98I counted along it
Method: as §1, §2

[4] = target: T1, human-derived transmembrane HB-EGF …; assay: flow cytometry on HB-EGF-expressing cells (summary of the selection)

T1 sequence (Q99075 20-208): as the sequence (Q99075 20-208 I117A) above, with A98I counted along it

B1: 35-1 humanized antibody (antibody, V domains shown)
VH: QVQLVQSGAEVVKPGSSVKVSCKASGYSFSGYYMHWVKQAPGQGLEWIGEINPSTGGITYNQKFKAKATLTVDRSTSTAYMELKSLTSEDTAVYYCTRITWAFAYWGQGTTVTVSS
VL: QIVLTQSPTTMAASPGEKITITCSASSSVTYMYWYQQRPGFSPKLLIYDTSNLASGVPVRFSGSGSGTSYSLTIGTMEAEDVATYYCQQWSSYPPTFGGGTKLEIK
notes: CDR-grafted variable regions in a Lonza human IgG1 vector (human IgG1 constant region); also called humanized 35-1 antibody
Question: Does B1 bind [1]?
Answer: Result: binds

B2: 35-1 antibody (antibody, mouse IgG1, V domains shown)
VH: EVQLQQSGPELVKPRASVKISCKASGYSFSGYYMHWVKQSPEKSLEWIGEINPSTGGITYNQKFKAKATLTVDRSSSTAYMQLKSLTSEDSAVYYCTRITWAFAYWGQGTLVTVSA
VL: QIVLTQSPAIMSASPGEKVTMTCSASSSVTYMYWYQQKPGSSPRLLIYDTSNLASGVPVRFSGSGSGTSYSLTISRMEAEDAATYYCQQWSSYPPTFGGGTKLEIK
notes: Variable genes were amplified with mouse IgG1 CH1 and kappa constant region primers
Question: Does B2 bind [2]?
Answer: Result: binds

Question: Does B2 bind [3]?
Answer: Result: binds

Question: Does B2 bind [4]?
Answer: Result: binds

B3: 292 antibody (antibody, mouse IgG1, V domains shown)
VH: EVQLQQSGPELVKPGASVKISCKASGYSFTGYYMHWVKQSPEKSLEWIGEINPSTGGTTYNQKFKAKATLTLDKSSSTAYMQLKSLTSEDSAVYYCAKSPYWDGAYWGQGTLVTVSA
VL: B2 VL with V29I, T30S, K38R, Y70H, P95S
notes: as for B2
Question: Does B3 bind [2]?
Answer: Result: binds

Question: Does B3 bind [3]?
Answer: Result: binds

Question: Does B3 bind [4]?
Answer: Result: binds

B4: 35-1 chimeric antibody (antibody, V domains shown)
VH: B2 VH
VL: B2 VL
notes: Variable regions of the 35-1 antibody in Lonza human IgG1 antibody producing vectors (human IgG1 constant region); also called chimerized 35-1 antibody
Question: Does B4 bind [1]?
Answer: Result: binds

From patent publication US20160083464A1 (MEDICAL AND BIOLOGICAL LABORATORIES, published 2016)
